In patent US20150291685A1 (AstraZeneca / MedImmune, published 2015):

Columns and labels:
[1] = biological target: T1, S. aureus Iron regulated surface determinant H (IsdH) (Staphylococcus aureus, UniProt Q2FXJ2 41-864, limits assumed); test: hu_IgGFc capture assay, mean of three experiments
T1 sequence (looked up): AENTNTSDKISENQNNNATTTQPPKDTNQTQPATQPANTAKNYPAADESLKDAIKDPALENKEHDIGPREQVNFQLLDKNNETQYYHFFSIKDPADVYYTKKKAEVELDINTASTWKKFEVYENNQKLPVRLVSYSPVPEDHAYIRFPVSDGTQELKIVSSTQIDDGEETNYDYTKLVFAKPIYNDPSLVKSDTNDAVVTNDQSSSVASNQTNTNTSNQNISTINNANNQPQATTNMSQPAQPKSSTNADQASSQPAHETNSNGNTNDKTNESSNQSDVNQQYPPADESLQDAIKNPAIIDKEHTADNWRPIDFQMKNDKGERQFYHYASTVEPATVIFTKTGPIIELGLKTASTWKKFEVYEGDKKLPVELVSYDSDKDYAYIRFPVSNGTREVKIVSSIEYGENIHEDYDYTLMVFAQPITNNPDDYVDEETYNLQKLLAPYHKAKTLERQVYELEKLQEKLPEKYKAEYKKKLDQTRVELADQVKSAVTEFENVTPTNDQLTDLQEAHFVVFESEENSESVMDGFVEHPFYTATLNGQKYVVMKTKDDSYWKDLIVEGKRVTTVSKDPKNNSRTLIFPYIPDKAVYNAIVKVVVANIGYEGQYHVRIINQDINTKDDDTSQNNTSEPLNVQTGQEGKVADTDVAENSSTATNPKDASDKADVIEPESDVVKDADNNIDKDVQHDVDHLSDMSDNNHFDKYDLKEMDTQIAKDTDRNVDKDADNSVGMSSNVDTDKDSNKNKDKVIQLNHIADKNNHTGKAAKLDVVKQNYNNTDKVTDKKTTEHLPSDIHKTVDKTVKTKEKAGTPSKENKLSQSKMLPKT

Neat-2 subunit of IsdH [2] = biological target: T2, Neat-2 subunit of IsdH (Staphylococcus aureus, UniProt Q2FXJ2 345-471); test: hu_IgGFc capture assay, mean of three experiments
T2 construct: domain: Neat-2; also called subunit Neat-2
T2 sequence (looked up): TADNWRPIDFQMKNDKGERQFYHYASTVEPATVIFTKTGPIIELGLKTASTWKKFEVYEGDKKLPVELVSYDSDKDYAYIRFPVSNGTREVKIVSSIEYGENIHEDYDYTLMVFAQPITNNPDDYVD

Neat-2 subunit of IsdH [3] = biological target: T2, Neat-2 subunit of IsdH; test: competition ELISA: haptoglobin (Hp) binding to Neat-2 of IsdH with rising antibody concentration
[4] = biological target: T3, S. aureus clumping factor protein ClfA (Staphylococcus aureus, UniProt Q2G015 221-559, limits assumed); test: inhibition of ClfA binding to immobilized fibrinogen; the curve reaches about 60-65 % inhibition [table]
T3 sequence (looked up): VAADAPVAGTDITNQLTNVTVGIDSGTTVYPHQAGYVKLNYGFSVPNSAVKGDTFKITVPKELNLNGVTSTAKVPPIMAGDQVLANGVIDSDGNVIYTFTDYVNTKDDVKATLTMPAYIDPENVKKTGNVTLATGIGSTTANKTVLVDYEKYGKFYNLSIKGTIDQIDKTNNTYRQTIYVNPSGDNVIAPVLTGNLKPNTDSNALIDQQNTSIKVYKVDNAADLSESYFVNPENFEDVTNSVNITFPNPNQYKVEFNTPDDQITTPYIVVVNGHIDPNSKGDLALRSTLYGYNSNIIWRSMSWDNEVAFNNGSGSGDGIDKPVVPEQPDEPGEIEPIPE

[5] = biological target: T3, S. aureus clumping factor protein ClfA; test: inhibition of ClfA binding to immobilized fibrinogen; the curve reaches about 55-62 % inhibition [table]
Neat-1 = biological target: T4, Neat-1 (Staphylococcus aureus); test: competition ELISA: haptoglobin (Hp) binding to Neat-1 of IsdH with rising antibody concentration
T4 construct: domain of IsdH; also called subunit Neat-1 on IsdH; NEAT1 motif of IsdH

B1: mAb 2F4 (antibody, V domains shown)
VH: EVQLLESGGGLVQPGGSLRLSCAASGFTFSPYMMQWVRQAPGKGLEWVSSIWPSGGKTYYADSVKGRFTISRDNSKNTLYLQMNSLRAEDTAVYYCARVRRGGATDYWGQGTLVTVSS
VL: DIQMTQSPATLSVSPGERATLSCRASQSVSSNLGWYQQKPGQAPRLLIYGASTRATGIPTRFSGSGSGTEFTLTISSLQSEDFATYYCQQYQNWPLLTFGGGTKVEIK
notes: also called antibody 2F4; anti-IsdH mAb 2F4
Kd [1]: 3.66 nM
Kd (Neat-2 subunit of IsdH [2]): 2.57 nM
IC50 (read off the curve) (Neat-2 subunit of IsdH [3]): ~1 µg/mL

B2: mAb 23D6 (antibody, V domains shown)
VH: QVQLVESGGGVVQPGRSLRLSCAASVFTFSSYGMHWVRQAPGKGLEWVALIWFDGSNEYYADSVKGRFTISRDNSKNTLYLQMNSLRAEDTAVYYCARDRGGGYYYYGMDVWGQGTTVTVSS
VL: DIQMTQSPSSLSASVGDRVTITCRASQGIRNDLGWYQQKPGKAPKRLIYAASSLQSGVPSRFSGSGSGTEFTLTISSLQPEDFATYYCLQHNSYPYTFGQGTKLEIK
notes: also called anti-ClfA antibody 23D6
IC50 [4]: 1.92 µg/mL

B3: anti-ClfA mAb 11H10 (antibody, V domains shown)
VH: EVQLLESGGGLVQPGGSLRLSCAASGFTFSSFAMSWVRQAPGKGLEWVSAISGSGGNTYYADSVKGRFTISRDNSKNTLYLQMNSLRAEDTAVYYCAKIAFDIWGQGTMVTVSS
VL: DIQMTQSPSSLSASVGDRVTITCRASQGIRNDLGWYQQKPGKAPKRLIYVASSLQSGVPSRFSGSGSGTEFTLTISSLQPEDFATYYCLQHNSYPFTFGPGTKVDIK
IC50 [5]: 0.871 µg/mL

B4: mAb 1C1 (antibody, V domains shown)
VH: EVQLLESGGGLVQPGGSLRLSCAASGFTFSRYFMGWVRQAPGKGLEWVSSIYSSGGYTSYADSVKGRFTISRDNSKNTLYLQMNSLRAEDTAVYYCARRWRDGTFDYWGQGTLVTVSS
VL: DIQMTQSPSSLSASIGDRVTISCRASQSVREYLNWYQQKPGKAPKLLIFAASSLQSGVPSRFSGSGSGTDFTLTISSLQPEDFATYYCQQSYSTRFTFGPGTKVDIK
notes: also called antibody 1C1
IC50 (read off the curve) (Neat-1): ~3 µg/mL
